Measurements published in the supplement of paper PMC10567573.

B1: SOAT1 (parent)
chain: KSAAMLAVFAVSAVVHEYALAVCL
B2: SEC22B (parent)
chain: FPKKLAFAYLEDLHSEFDEQHGKK

Variants of: B1
Experiment: protein stability index of a GFP-peptide fusion (GPS, HEK-293T) (PSI 1-6); higher = more stable
Settings: c terminus: a fixed tail appended
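Note: lentivirally expressed fusions sorted by FACS into six bins by GFP to DsRed ratio, PSI derived from sequencing read proportions per bin multiplied by bin number.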

Protein stability index of substitutions, site by site:
V22: H 2.82; I 4.34; C 3.03; R 4.03; T 3.08; A 3.06
L20: S 2.62; I 1.49; W 3.92; T 2.31; Q 4.49; K 2.58; N 4.2
A21: M 3.82; F 3.01; D 3.15; I 1.6; N 3.11; L 3; E 3.42; S 4.49
L24: T 5.26; K 4.06; I 2.33; Y 1.98; A 3.7; D 3.9; F 2.33; N 2.87; P 2.62
C23: I 3.12; P 5.3; A 1.18; H 2.03; K 3.89; S 3.48; V 2.34; D 3.23; Q 2.32

Variants of: B2
Experiment: as above
Settings: c terminus: a fixed tail appended

Protein stability index of substitutions, site by site:
F7: M 2.53; N 3.79; I 3.24; G 3.8; Q 4.16; P 3.39; R 3.28; L 2.65; K 3.8; D 3.98; E 4; H 3.42; C 3.47; A 3.63
L5: C 1.66; M 1.84; K 2.85; F 2.17; D 3.26; N 2.65; V 2.9; R 2.65; I 2.98; G 2.41; W 1.59; E 3.56; A 2.15; Q 3.18; S 2.64; P 1.77; H 1.95; T 3.02; Y 2.52
P2: C 1.87; G 3.38; M 3.04; D 4.59; R 2.94; E 4.11; N 3.44; Y 2.16; F 2.62; S 3.06; A 1.84; L 1.68; H 2.17; T 3.05; Q 2.88; V 2.29; W 1.95; K 2.55; I 1.98
K3: N 2.23; Q 2.4; Y 1.74; C 1.69; S 2.01; H 1.17; V 2.53; I 2.17; R 2.42; A 1.91; M 2.2; L 2.79; F 1.91; E 2.95; P 3.08; D 2.25; W 1.96; T 2.53; G 2.29
F1: A 4.36; C 4.01; H 3.84; V 4.13; W 3.51; K 4.8; S 4.52; T 4.37; I 3.56; R 3.98; E 5.41; D 4.93; L 3.79; Q 4.51; P 4.6; N 4.88; G 4.02; M 3.97; Y 2.53
K4: Q 2.52; H 2.87; F 1.97; D 3.31; G 2.72; E 4.95; V 2.25; R 1.61; S 1.55; C 1.78; P 2.45; N 2.27; L 2.18; Y 1.95; W 1.05; M 2.02; A 1.81; I 2.02; T 2.47
A6: D 3.13; T 3.03; N 2.56; S 2.69; I 2.35; W 2.74; V 2.45; H 2.91; F 2.4; K 2.59; Y 1.66; P 3.06; L 1.83; Q 3.18; M 2.3; E 3.96; R 2.28; C 2.29; G 2.45
